Series [1] deals with MS2 coat protein. The series is described as follows: apparent KD of MS2 coat protein, switch ON state; designed switch direction (-1 OFF switch, 1 ON switch): 1; higher = weaker reporter binding. To be noted: FMN input: 0 or 200 uM; Eterna round: R93 (includes R88 designs). The method, boiled down:
(§1)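 Apparent KD was obtained for each design as the median of normalised binding-curve fits over its clusters. RNA switches transcribed on-chip from Illumina sequencing clusters were titrated with SNAP-549-labelled MS2 coat protein (twofold steps, 0.7 or 1.5 nM to 3 µM) in 100 mM Tris-HCl pH 7.5, 80 mM KCl, 4 mM MgCl2, without or with constant ligand.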

Series [2] has as its system MS2 coat protein. The experiment in a line: apparent KD of MS2 coat protein, switch OFF state (with FMN for OFF switches, without FMN for ON switches); designed switch direction (-1 OFF switch, 1 ON switch): 1; higher = weaker reporter binding. Particulars: FMN input: 0 or 200 uM; Eterna round: R93 (includes R88 designs). An outline of the steps:
as §1

Consider “AAUAGACAUGAGGAUCACCCAUGUAGAAUUAUGGGAGGAUAUACAAAGACGAGAGUCAGAGUAGAAGGCCUAGGAA [salish99-ss1-148]”, for which the results for the “apparent KD of MS2 coat protein” value in series [1] and in series [2] were 23.6 nM and 71.5 nM, respectively.

Consider “AAUAGACAUGAGGAUCACCCAUGUAGAAUUAUGGGAGGAUAUACAAAGACGAGAGUCAGAGUAGAAGGCCUAGGAU [salish99-ss1-149]”, for which the figures for the “apparent KD of MS2 coat protein” value in series [1] and in series [2] were 24.7 nM and 51.8 nM, respectively.

On to “AAUAUACAUGAGGAUCACCCAUGUUAGGUGGGACUAGGAUAUCAAAAUACAUAAUGAACAUGAGAAGGAGUAUCAA [JR_SS001_Sub403]”, for which the “apparent KD of MS2 coat protein” value in series [1] worked out at 140 nM; in series [2] it was 249 nM.

On to “AAUAUACAUGAGGAUCACCCAUGUUAGGUGGGACUAGGAUAUCAGAGUACAUAAUGAACAUGAGAAGGAGUAUCAA [JR_SS001_Sub404]”, for which the figures for the “apparent KD of MS2 coat protein” value in series [1] and in series [2] were 115 nM and 110 nM, respectively.

Regarding “AAUAUACAUGAGGAUCACCCAUGUUUUAAUAACGCAGGAUAUACGGGUGAAAACAGCAUAGUAGAAGGGCGAAAAA [SameState1 Malc#1]”, the “apparent KD of MS2 coat protein” value came out at 31.8 nM in series [1] and 106 nM in series [2].

For “AAUAUACAUGAGGAUCACCCAUGUUUUAAUAACUGAGGAUAUACGGGUGAAAACAGCAUAGUAGAAGGCAGAUAUA [SameState1 Malc#6]”, the “apparent KD of MS2 coat protein” value amounted to 37.8 nM in series [1] and 102 nM in series [2].

On to “AAUAUAUUAUUUAAGGAUAUCAUAGGAAACACAUGAGGAUCACCCAUGUGGGAAACCUGGUCGGGUGAGAAGGUGGAUAAUAUAU [Samwise Clockwise 35 - Jieux - Same State 2]”, for which the “apparent KD of MS2 coat protein” value in series [1] came to 13.8 nM; in series [2] it was 35.2 nM.

Regarding “AAUCCAAAUAGUCAGGAUAUCAAAAAUAAGACAUGAGGAUCACCCAUGUACUAAGUAAAAGUAAAUGAGAAGGGACAGGGUGAAA [JR_SS002_Sub402]”, the entries for the “apparent KD of MS2 coat protein” value in series [1] and in series [2] were 138 nM and 145 nM, respectively.

For “AAUGAACAUGAGGAUCACCCAUGUUCUAACAGUUGAGGAUAUGUGGGUGAAAAUAGCACGGCAGAAGGCGAGUGUA [SameState1 Malc#20]”, the “apparent KD of MS2 coat protein” value in series [1] was 119 nM; in series [2], 54.6 nM.

Turning to “AAUUGACAUGAGGAUCACCCAUGUAGGAUUAUGGGAGGAUAUACAAAGACGAGAGUCAGAGUAGAAGGCCUAGGAA [salish99-ss1-146]”, the “apparent KD of MS2 coat protein” value in series [1] stood at 25 nM; in series [2] it was 82.1 nM.

In the case of “ACUAUACAUGAGGAUCACCCAUGUUAGCUGGGCGAAGGAUAUGUAGAUGGAUAAAAAUAUGCAGAAGGUCGAUAAC [JR_SS001_Sub210]”, the entries for the “apparent KD of MS2 coat protein” value in series [1] and in series [2] were 39.5 nM and 77.2 nM, respectively.

Regarding “AGAAAUAAAAGAGAGGAUAUCCUAAAGAAAACAUGAGGAUCACCCAUGUAAAAGAAAAUAAAAUGGGAGAAGGCUCAAAAUAAAG [80%, More Helter Skelter 2]”, the entries for the “apparent KD of MS2 coat protein” value in series [1] and in series [2] were 15.4 nM and 39.5 nM, respectively.

Turning to “AGAAAUAAAAGCUAGGAUAUCCAAAAGAAAACAUGAGGAUCACCCAUGUGAAAGAAAAUAAAAUGGGAGAAGGAGCAAAAUAAGA [Topaz 51]”, the “apparent KD of MS2 coat protein” value in series [1] worked out at 17.5 nM; in series [2], 31 nM.

Take “AGAAAUAAACCGAAGGAUAUCCAAACCUAAACAUGAGGAUCACCCAUGUAAAAGAAAAUAAAAUGGGAGAAGGUCGGAAAUAAGA [Designing denovo 13]”: the “apparent KD of MS2 coat protein” value in series [1] amounted to 17.7 nM; in series [2], 25.3 nM.

Turning to “AGAAGACAUGAGGAUCACCCAUGUGGGAAUAUGGGAGGAUAUACAAAGACGAGAGUCAGAGUAGAAGGCCUAGGCA [salish99-ss1-111]”, the “apparent KD of MS2 coat protein” value is 47 nM in series [1] and 129 nM in series [2].

For “AGAAGACAUGAGGAUCACCCAUGUGGGAAUAUGGGAGGAUAUACAAAGACGAGAGUCAGAGUAGAAGGCCUAGGUA [salish99-ss1-109]”, the results for the “apparent KD of MS2 coat protein” value in series [1] and in series [2] were 32.5 nM and 99.5 nM, respectively.

Regarding “AGAAUAAAAACAGAGGAUAUCCAAAAGAAAACAUGAGGAUCACCCAUGUAAAAGAAAAUAAAAUGGGAGAAGGCUGAAAUAAAGA [Mat - Same State 2 - Eli mod - D97]”, the “apparent KD of MS2 coat protein” value in series [1] was 14.9 nM; in series [2], 33.2 nM.

Regarding “AGGAAACAUGAGGAUCACCCAUGUAAAAGGUGGUUAGGAUAUGCAAAAAGAAAAAGAAAAGCAGAAGGGACAAGAA [mod of top voted: #1]”, the “apparent KD of MS2 coat protein” value in series [1] amounted to 351 nM; in series [2], 600 nM.

“AGGAAACAUGAGGAUCACCCAUGUAGAAAUAUGGGAGGAUAUACAAAGACGAAAGUCAAAGUAGAAGGCCUAAAAA [Mat - Same State 1 - Mod - D151]”: the “apparent KD of MS2 coat protein” value in series [1] amounted to 17.6 nM; in series [2] it was 57.1 nM.
